Data as given in paper PMC7055372.

These substances were tested against Transforming growth factor β-1 (TGFβ-1) (UniProt P01137) (assay: ELISA of cell-culture supernatant with anti-TGFβ-1 antibody after acid activation (latent complex formation/secretion)). Conditions: HEK293T cells transfected, supernatant after 48 h; acid-activated (short incubation with HCl); parent: est. 1.0; read off a plot.

response (Normalized OD450) | Substance
0.53 | LAP of wild-type LTGFβ-1 C4S (full-length LTGFβ-1 expressed in HEK-293T cells) (from UniProt P01137) S109P
0.6 | LAP of wild-type LTGFβ-1 C4S (full-length LTGFβ-1 expressed in HEK-293T cells) (from UniProt P01137) E113P
0.18 | LAP of wild-type LTGFβ-1 C4S (full-length LTGFβ-1 expressed in HEK-293T cells) (from UniProt P01137) L111P
